From the supplement of paper PMC7125110
± gives the standard error. For some of these results: This sample holds only a part of the variants without activity.

B1: glmS ribozyme (parent)
chain: AUAAAAGCGCCAGAACUACAGAAAUGUAGUUGACGAGGAGGAGGUUUAUCGAAUUUUCGGCGGAUGCCUCCAAA

Experiments:
Settings in all cases: with glucosamine-6-phosphate
[1] = variants of: B1; experiment: kcat; higher = faster cleavage; RNA array
Procedure, shortened: (§1)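 Barcoded ribozyme variants were transcribed in situ on sequenced MiSeq chips by E. coli RNA polymerase. At 37 °C, a hybridised Cy3 probe tracked them while glucosamine-6-phosphate (40 μM to 10 mM) in HEPES/KCl/Mg(OAc)2 buffer flowed in and tiles were imaged over ~14 h. Per-tile medians of signals normalised to baseline and to non-cleaving reference variants were fit to one- or two-exponential decays, giving kobs. kcat and KM came from weighted Michaelis–Menten fits across concentrations.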

[2] = variants of: B1; experiment: KM; higher = weaker cofactor use; RNA array
Procedure, shortened: as §1

[3] = variants of: B1; experiment: self-cleavage kobs at 640 uM GlcN6P; higher = faster cleavage; RNA array
Procedure, shortened: as §1

[4] = variants of: B1; experiment: self-cleavage kobs at 2500 uM GlcN6P; higher = faster cleavage; RNA array
Procedure, shortened: as §1

[5] = variants of: B1; experiment: self-cleavage kobs at 10000 uM GlcN6P; higher = faster cleavage; RNA array
Procedure, shortened: as §1

[6] = variants of: B1; experiment: self-cleavage kobs at 40 uM GlcN6P; higher = faster cleavage; RNA array
Procedure, shortened: as §1

[7] = variants of: B1; experiment: self-cleavage kobs at 160 uM GlcN6P; higher = faster cleavage; RNA array
Procedure, shortened: as §1

Variant | kcat [1] [s⁻¹] | KM [2] [µM] | self-cleavage kobs at 640 uM GlcN6P [3] [s⁻¹] | self-cleavage kobs at 2500 uM GlcN6P [4] [s⁻¹] | self-cleavage kobs at 10000 uM GlcN6P [5] [s⁻¹] | self-cleavage kobs at 40 uM GlcN6P [6] [s⁻¹] | self-cleavage kobs at 160 uM GlcN6P [7] [s⁻¹]
C61G U69G | 1.73e-05 ± 4.8e-06 | – | – | – | – | – | –
C16U C61G C67A | 2.72e-05 ± 6.4e-06 | – | – | – | – | – | –
G40U G41A | 0.000118 ± 3.1e-06 | 1380 ± 130 | 3.9e-05 ± 1.1e-05 | 7.51e-05 ± 9.8e-06 | 0.000104 ± 9.9e-06 | – | –
U30G G59U | 1.09e-05 ± 1.8e-06 | – | – | – | – | < 1e-05 | –
G13A C50A | < 1e-05 | – | – | – | < 1e-05 | < 1e-05 | –
A53C C68G | < 1e-05 | – | – | – | – | – | –
C11U G13U | 6.21e-05 ± 5.4e-06 | 1020 ± 420 | – | 4.88e-05 ± 9.5e-06 | 5.47e-05 ± 8.2e-06 | – | –
C16U G60A | 1.69e-05 ± 4.6e-06 | – | – | 2.66e-05 ± 1.3e-05 | – | < 1e-05 | –
G29C U49G | 1.82e-05 ± 5.3e-06 | – | – | – | – | < 1e-05 | –
U46C C68G | 5.04e-05 ± 2e-06 | 811 ± 200 | – | – | 4.62e-05 ± 1.3e-05 | – | –
G32U G40A | 0.000344 ± 5e-05 | 3450 ± 950 | 6.33e-05 ± 6.7e-06 | 0.000131 ± 1e-05 | 0.000267 ± 1.9e-05 | – | –
G38A U54G | < 1e-05 | – | – | – | – | < 1e-05 | –
U56A U57G | 0.000127 ± 3.4e-05 | – | 3.45e-05 ± 1.3e-05 | 4.92e-05 ± 1e-05 | 0.000102 ± 2e-05 | – | –
C50U | 0.000131 ± 9.2e-06 | 3300 ± 600 | 2.57e-05 ± 1.5e-06 | 5.29e-05 ± 1.6e-06 | 9.95e-05 ± 1.6e-06 | – | –
C50G C71U | 0.000123 ± 2.1e-05 | – | 0.000194 ± 2.7e-05 | 0.000103 ± 1.3e-05 | – | 6.9e-05 ± 9.9e-06 | 0.000107 ± 1e-05
U46G G59U | < 1e-05 | – | < 1e-05 | – | – | < 1e-05 | –
G40U U46C U47G | 2.86e-05 ± 4.9e-06 | – | – | – | – | – | –
A14G C67G | 0.00362 ± 0.00046 | 1530 ± 280 | 0.00104 ± 0.00011 | 0.00164 ± 0.00033 | 0.00339 ± 0.0003 | 9.34e-05 ± 8.5e-06 | 0.000388 ± 6e-05
C11U C68A C71G | 5.97e-05 ± 2.3e-05 | – | 0.000101 ± 2.3e-05 | – | – | – | –
U65A G66A C67G C71U | 8.39e-05 ± 1.9e-05 | – | – | 8.49e-05 ± 2.1e-05 | 6.69e-05 ± 1.9e-05 | – | –

Variant | kcat [1] [s⁻¹] | KM [2] [µM] | self-cleavage kobs at 640 uM GlcN6P [3] [s⁻¹] | self-cleavage kobs at 2500 uM GlcN6P [4] [s⁻¹] | self-cleavage kobs at 10000 uM GlcN6P [5] [s⁻¹] | self-cleavage kobs at 40 uM GlcN6P [6] [s⁻¹] | self-cleavage kobs at 160 uM GlcN6P [7] [s⁻¹]
A42G A64G | 0.024 ± 0.0071 | 1370 ± 520 | 0.00754 ± 0.0017 | 0.0422 ± 0.015 | 0.0194 ± 0.0055 | 0.000694 ± 0.00014 | 0.0024 ± 0.00059
C16A A52G | 0.000129 ± 7.4e-06 | 730 ± 180 | 6.18e-05 ± 2.3e-05 | 0.000102 ± 1.9e-05 | 0.000118 ± 1.9e-05 | – | –
G13A A14G | 0.00208 ± 0.00043 | 3430 ± 1000 | 0.000393 ± 6.9e-05 | 0.000888 ± 0.00012 | 0.00151 ± 0.00023 | 3.73e-05 ± 1.1e-05 | 7.81e-05 ± 1.4e-05
A48G C68G | 5.98e-05 ± 7.3e-06 | – | 7.32e-05 ± 1.6e-05 | 5.41e-05 ± 1.2e-05 | 5.84e-05 ± 8.1e-06 | 4.65e-05 ± 1.2e-05 | –
U55C | 0.0394 ± 0.0032 | 2000 ± 200 | 0.0091 ± 0.00035 | 0.0201 ± 0.001 | 0.0349 ± 0.0014 | 0.000797 ± 1.8e-05 | 0.0027 ± 0.00018
U31C G32U | 0.000799 ± 8e-05 | 4030 ± 600 | 0.000112 ± 9.6e-06 | 0.000281 ± 2.9e-05 | 0.000594 ± 5.8e-05 | – | 3.53e-05 ± 8.1e-06
G40A U56C | 0.000181 ± 2.6e-05 | 2280 ± 720 | 4.68e-05 ± 8.5e-06 | 8.42e-05 ± 1.1e-05 | 0.000157 ± 1.9e-05 | – | –
A15U U49G | 9.5e-05 ± 7.9e-06 | 1730 ± 470 | 2.05e-05 ± 9.2e-06 | 5.99e-05 ± 8e-06 | 7.95e-05 ± 8.2e-06 | – | –
A39U C58A | 0.000543 ± 0.00013 | – | – | 8.13e-05 ± 1.4e-05 | 0.000214 ± 2.7e-05 | – | –
A12U C50A | 0.000111 ± 2.6e-06 | 1660 ± 130 | 3.27e-05 ± 1.3e-05 | 6.47e-05 ± 1.4e-05 | 9.58e-05 ± 1.2e-05 | – | –
G32A C71G | 0.000224 ± 3.5e-05 | 1190 ± 450 | 6.85e-05 ± 1.1e-05 | 0.00018 ± 2.8e-05 | 0.000195 ± 2.2e-05 | – | 5.06e-05 ± 1.5e-05
A33C U56A | 0.000161 ± 5.6e-05 | – | – | – | 8.05e-05 ± 1.2e-05 | – | –
C16A C70G | 4.18e-05 ± 5e-06 | – | 3.86e-05 ± 1.5e-05 | 5.28e-05 ± 1e-05 | 3.56e-05 ± 7.5e-06 | – | –
G13U U56A C67U | 0.000254 ± 9.5e-05 | – | – | 0.000115 ± 3.1e-05 | 0.000167 ± 3.2e-05 | – | –
U69A C70G | 1.72e-05 ± 8e-06 | – | – | – | – | – | –
U46G A52U | 0.000165 ± 1.2e-05 | – | – | 2.87e-05 ± 1.3e-05 | 7.51e-05 ± 2.1e-05 | < 1e-05 | < 1e-05
G66U U69G | 3.26e-05 ± 1.2e-05 | – | 5.52e-05 ± 2.5e-05 | 4.9e-05 ± 2.2e-05 | – | – | –
U31G G35U C67G | < 1e-05 | – | – | – | – | – | –
G29U A48U | 4.34e-05 ± 5.3e-06 | – | – | 4.72e-05 ± 1.3e-05 | 3.9e-05 ± 9.4e-06 | – | –
